Results published in US20070065896A1, “Methods and kits for quantifying metabolites or analytes” (priority 2003, published 2007).

Key:
[1] = Specific activities of recombinant enzymes towards different substrates (Kredich and Tomkins); assay type: biochemical
Excerpt: Specific activities (micromol/min/mg protein) towards different substrates
(§1) Assayed according to Kredich and Tomkins (Journal of Biological Chemistry 241, 4955-4965, 1966)

[2] = Kinetic properties of recombinant enzymes; assay type: biochemical; settings: ± SD, n in brackets
Excerpt: as §1

[3] = substrate O-succinyl-L-homoserine

B1: PA3107: Recombinant N-terminal His-tagged O-acetyl-L-homoserine thiol lyase from Pseudomonas aeruginosa, encoded by gene PA3107 (MetZ, Genbank AAA83435) (protein, UniProt P55218 1-403, looked up)
O-succinylhomoserine …: MTQDWDAGRLDSDLEGAAFDTLAVRAGQRRTPEGEHGEALFTTSSYVFRTAADAAARFAGEVPGNVYSRYTNPTVRTFEERIAALEGAEQAVATASGMSAILALVMSLCSSGDHVLVSRSVFGSTISLFDKYFKRFGIQVDYPPLSDLAAWEAACKPNTKLFFVESPSNPLAELVDIAALAEIAHAKGALLAVDNCFCTPALQQPLKLGADVVIHSATKYIDGQGRGMGGVVAGRGEQMKEVVGFLRTAGPTLSPFNAWLFLKGLETLRIRMQAHSASALALAEWLERQPGIERVYYAGLPSHPQHELARRQQSGFGAVVSFDVKGGRDAAWRFIDATRMVSITTNLGDTKTTIAHPATTSHGRLSPEDRARAGIGDSLIRVAVGLEDLDDLKADMARGLAAL
modifications: N-terminal His tag
Specific activity ([1]; substrate O-acetyl-L-homoserine): <0.1 micromol/min/mg protein
Specific activity ([1]; substrate O-acetyl-serine): <0.1 micromol/min/mg protein
Specific activity [1, 3]: 139 micromol/min/mg protein
Km ([2]; Km for Na2S, determined with 15 mM O-succinyl-L-homoserine): 800 ± 200 µM
Km ([2]; Km for O-succinyl-L-homoserine): 4400 ± 1000 µM
Vmax ([2]; substrate Na2S): 174.2 ± 39.8 (3) μmol/min/mg protein
Vmax [2, 3]: 180.4 ± 21.0 (3) μmol/min/mg protein
